Measured values as given in article PMC8844856, “Structural basis of cyclic oligoadenylate binding to the transcription factor Csa3 outlines cross talk between type III and type I CRISPR systems” (The Journal of Biological Chemistry, 2022).
Where a chain is given by its changes, count along the chain named. Names and notes keep the numbering of the source. “Also recorded” adds a separate entry of the source.

Experiments:
[1] = target: T1, His6-Csa3Sso (WT) (Saccharolobus solfataricus, UniProt Q97Y88); assay: Microscale thermophoresis (MST) binding of cOA ligands to wildtype Csa3Sso; settings: MST
T1 construct: made in house; host or cells: E. coli BL21(DE3)-pLysS
T1 sequence (Q97Y88 1-237): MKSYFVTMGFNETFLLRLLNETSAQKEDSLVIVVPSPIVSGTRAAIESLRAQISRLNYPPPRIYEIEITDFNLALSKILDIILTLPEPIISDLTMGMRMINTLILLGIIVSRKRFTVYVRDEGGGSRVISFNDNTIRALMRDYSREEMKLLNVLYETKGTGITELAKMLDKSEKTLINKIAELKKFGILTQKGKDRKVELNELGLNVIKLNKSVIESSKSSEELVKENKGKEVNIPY
Protocol: The ligand-binding specificity of Csa3Sso (WT) and the role of Csa3Sso residues in ligand binding were determined by microscale Thermophoresis (MST). Wildtype or mutant His6-Csa3Sso (200 nM) was fluorescently labeled in 2× binding buffer (10 mM Na/K phosphate, pH 5.8, 10 mM MgCl2, 25 mM NaCl, and 0.05% Tween 20) using 100 nM RED-Tris NTA His-Tag labeling dye (Nanotemper Technologies, Inc) and incubated in the dark at room temperature for 30 min. Two millimolar stocks of synthetic ligands including cA3, cA4, and cA6 (Biolog Life Science Institute) or linear ribonucleotide 5′-rCrArArArA-3′ (Bio-Synthesis Inc) were serially diluted in a 1:1 ratio with nuclease-free water. The labeled proteins were then mixed with ligands in a 1:1 ratio. Only cA4 was used in the MST experiments with the Csa3Sso mutants (2 mM stocks of cA4 were used for F10A, F14A, G96A, and R98A mutants, and 20 μM stocks were used for E122A and E122Q mutants). The mixtures of proteins and ligands were incubated in the dark at room temperature for 30 min. The precipitated material was removed by centrifugation at 6000 rpm for 5 min. The supernatants were then loaded into Monolith NT.115 Series Premium capillaries in triplicate, and the thermophoresis was detected with 40% excitation power and 40% IR-laser power for an on-time of 20 s at 25 °C.
(§1) The binding affinities of oligonucleotides and PCas4a to Csa3Sso (WT and mutants) were analyzed according to the law of mass action in a standard fitting mode of MO.Affinity analysis software (version 2.3).

[2] = target: T1, His6-Csa3Sso (WT); assay: MST binding of PCas4a promoter DNA to Csa3Sso with or without cOAs; settings: 50-fold excess of cOA (25 μM)
Protocol: The MST experiment and data analysis for ligand-induced changes in Csa3Sso binding affinity with PCas4a was performed as mentioned above except for the following: 1 μM of His6-Csa3Sso (WT) was fluorescently labeled in 2× binding buffer with 40 nM RED-Tris NTA His-Tag labeling dye in the absence or presence of cA4 or cA6. The labeling mixtures were incubated in the dark at room temperature for 30 min. A 50 μM stock of PCas4a was serially diluted in 1:1 ratios with nuclease-free water. The labeled proteins ± ligands were then mixed with diluted PCas4a in a 1:1 ratio and incubated in the dark at room temperature for 30 min. The supernatants obtained after removal of precipitated material were then loaded into Monolith NT.115 Series Premium capillaries in triplicate, and the thermophoresis was detected with 100% excitation power and 60% IR-laser power for an on-time of 20 s at 25 °C.
as §1

[3] = target: the molecule itself; assay: SEC; Superdex 200 16/70 gel filtration in buffer F (20 mM Tris-HCl pH 8.0, 50 mM NaCl), against globular standards
[4] = target: the molecule itself; assay: AUC; sedimentation velocity, 20 °C, 40,000 rpm, 10 mM Na/KPO4 pH 5.8, 10 mM NaCl, 25 mM MgCl2; without cA4
[5] = target: T2, Csa3Sso WT (Saccharolobus solfataricus P2, UniProt Q97Y88 1-237); assay: EMSA; no cA4; faint shifted band; MST buffer not given in the material; Cy5 EMSA: 50 nM probe, 0.5-25 uM protein, 5% acrylamide TBE, 4 C; agarose EMSA: 2% TBE, room temperature; crystals: 20 mM; settings: protein: recombinant; tags: N-terminal His6; chain copies: 2; label: 5' Cy5 on top strand; blunt
T2 sequence: T1 sequence (Q97Y88 1-237)

[6] = target: T2, Csa3Sso WT; assay: MST; apparent Kd; MST buffer not given in the material; Cy5 EMSA: 50 nM probe, 0.5-25 uM protein, 5% acrylamide TBE, 4 C; agarose EMSA: 2% TBE, room temperature; crystals: 20 mM; settings: protein: recombinant; tags: N-terminal His6; chain copies: 2; cyclic; no ends
[7] = target: T2, Csa3Sso WT; assay: MST; only nonspecific signal at >=250 uM; MST buffer not given in the material; Cy5 EMSA: 50 nM probe, 0.5-25 uM protein, 5% acrylamide TBE, 4 C; agarose EMSA: 2% TBE, room temperature; crystals: 20 mM; settings: protein: recombinant; tags: N-terminal His6; chain copies: 2; cyclic; no ends
[8] = target: T2, Csa3Sso WT; assay: MST; no cOA; precipitate removed; MST buffer not given in the material; Cy5 EMSA: 50 nM probe, 0.5-25 uM protein, 5% acrylamide TBE, 4 C; agarose EMSA: 2% TBE, room temperature; crystals: 20 mM; settings: protein: recombinant; tags: N-terminal His6; chain copies: 2; blunt

For `Nc1ncnc2c1ncn2[C@@H]1O[C@@H]2COP(=O)(O)O[C@H]3[C@@H](O)[C@H](n4cnc5c(N)ncnc54)O[C@@H]3COP(=O)(O)O[C@H]3[C@@H](O)[C@H](n4cnc5c(N)ncnc54)O[C@@H]3COP(=O)(O)O[C@H]2[C@H]1O` [cA3], the “specific binding to His6-Csa3Sso” value [1] was “lack of Csa3Sso binding”.

For `Nc1ncnc2c1ncn2[C@@H]1O[C@@H]2COP(=O)(O)O[C@H]3[C@@H](O)[C@H](n4cnc5c(N)ncnc54)O[C@@H]3COP(=O)(O)O[C@H]3[C@@H](O)[C@H](n4cnc5c(N)ncnc54)O[C@@H]3COP(=O)(O)O[C@H]3[C@@H](O)[C@H](n4cnc5c(N)ncnc54)O[C@@H]3COP(=O)(O)O[C@H]3[C@@H](O)[C@H](n4cnc5c(N)ncnc54)O[C@@H]3COP(=O)(O)O[C@H]3[C@@H](O)[C@H](n4cnc5c(N)ncnc54)O[C@@H]3COP(=O)(O)O[C@H]2[C@H]1O` [cA6], the “effect of excess cOA on PCas4a binding affinity of Csa3Sso” value [2] was “no significant effect; also recorded: did not significantly change” and the “specific binding to His6-Csa3Sso” value [1] was “only cA4 exhibited a specific low micromolar binding”.

B1: Saccharolobus solfataricus Csa3 (Csa3Sso), N-terminally His6-tagged, wildtype (natural protein, UniProt Q97Y88 1-237, looked up)
chain: T1 sequence (Q97Y88 1-237)
notes: Csa3 (CRISPR Apern 3, a Csa3a homolog) of Saccharolobus solfataricus strain P2, Sso1445, UniProtKB Q97Y88; full-length; the His6-tagged construct has 248 a.a; (MW theor 28.1 kDa); Synthetic gene in pBB75 (or pET21b); also called His6-Csa3Sso; Csa3Sso (WT); source: E. coli BL21(DE3)-pLysS, purified (lysate heated at 65 °C, HisTrap, Mono-Q flow-through, Cibacron Blue, Superdex 200); not shown: …
With B1 the “stoichiometry N” value [3] was 2.

B2: Csa3Sso-R98A mutant, N-terminally His6-tagged (natural protein, Saccharolobus solfataricus, UniProt Q97Y88 1-237, looked up)
chain: T1 sequence (Q97Y88 1-237) with R98A
notes: Csa3 of Saccharolobus solfataricus strain P2, Sso1445, UniProtKB Q97Y88; full-length, with R98A; Synthetic gene in pBB75; source: E. coli BL21(DE3)-pLysS, purified (lysate heated at 65 °C, HisTrap, Mono-Q flow-through, Cibacron Blue, Superdex 200); not shown: His6, N-terminal, kept
For B2, the “stoichiometry N” value [4] was 2.

B3: Cy5-PCas4a (dsDNA)
DNA 1: AAAGAATTCCCGAATTTACTAGGGAT
DNA 2: ATCCCTAGTAAATTCGGGAATTCTTT
modifications: 5' amino-modified top strand
B3: binds [5].

AAAA (ssRNA, cyclic, 3'-5' linked tetra-adenylate (CHEBI:142457)) [cA4] gave a Kd [6] of 5.8 ± 0.03 µM.

AAA (ssRNA, cyclic tri-adenylate) [cA3]: no binding [7].

B4: PCas4a (dsDNA)
DNA 1: AAAGAATTCCCGAATTTACTAGGGAT
DNA 2: ATCCCTAGTAAATTCGGGAATTCTTT
Work on B4 yielded a Kd [8] of 1.62 ± 0.17 µM.
